Reference: publication PMC8998655, “Effect of Betaine and Arginine on Interaction of αB-Crystallin with Glycogen Phosphorylase b” (International Journal of Molecular Sciences, 2022)

Tests used:
[1] = target: the molecule itself; experiment: AUC + other: dynamic light scattering; sedimentation velocity at 48 °C, αB-Cr 0.2 mg/mL, 0.03 M Hepes pH 6.8, ionic strength 0.15 M, no additive; mass by the Svedberg equation with s from AUC and D from DLS; major peak 20.4 S
[2] = target: the molecule itself; experiment: AUC + other: dynamic light scattering; sedimentation velocity at 48 °C, αB-Cr 0.2 mg/mL, 0.03 M Hepes pH 6.8, ionic strength 0.15 M, with 300 mM betaine; mass by the Svedberg equation with s from AUC and D from DLS; major peak 16.5 S
[3] = target: the molecule itself; experiment: AUC; sedimentation velocity at 48 °C, Phb 0.4 mg/mL alone (also with 500 mM betaine), 0.03 M Hepes pH 6.8, ionic strength 0.15 M, 48,000 rpm

Protein	stoichiometry N [1]	stoichiometry N [2]	stoichiometry N [3]
αB-crystallin (natural protein, human, UniProt P02511 1-175, looked up, αB-crystallin (HspB5), human; Polydisperse oligomer (about 40-mer at 48 °C without additives, about 24-mer with 300 mM betaine); also called HspB5; source: E. coli (pET23 vector), purified (salting out with ammonium sulfate, gel filtration)) MDIAIHHPWIRRPFFPFHSPSRLFDQFFGEHLLESDLFPTSTSLSPFYLRPPSFLRAPSWFDTGLSEMRLEKDRFSVNLDVKHFSPEELKVKVLGDVIEVHGKHEERQDEHGFISREFHRKYRIPADVDPLTITSSLSSDGVLTVNGPRKQVSGPERTIPITREEKPAVTAAPKK	40	~24	
glycogen phosphorylase b (enzyme, rabbit, UniProt P00489 1-843, looked up, glycogen phosphorylase b (muscle form), rabbit skeletal muscle; In all experiments the protein was heated at 48 °C, so it was partly unfolded (unfolded monomer and partly unfolded dimer); also called Phb; source: purified from rabbit skeletal muscle) MSRPLSDQEKRKQISVRGLAGVENVTELKKNFNRHLHFTLVKDRNVATPRDYYFALAHTVRDHLVGRWIRTQQHYYEKDPKRIYYLSLEFYMGRTLQNTMVNLALENACDEATYQLGLDMEELEEIEEDAGLGNGGLGRLAACFLDSMATLGLAAYGYGIRYEFGIFNQKICGGWQMEEADDWLRYGNPWEKARPEFTLPVHFYGRVEHTSQGAKWVDTQVVLAMPYDTPVPGYRNNVVNTMRLWSAKAPNDFNLKDFNVGGYIQAVLDRNLAENISRVLYPNDNFFEGKELRLKQEYFVVAATLQDIIRRFKSSKFGCRDPVRTNFDAFPDKVAIQLNDTHPSLAIPELMRVLVDLERLDWDKAWEVTVKTCAYTNHTVLPEALERWPVHLLETLLPRHLQIIYEINQRFLNRVAAAFPGDVDRLRRMSLVEEGAVKRINMAHLCIAGSHAVNGVARIHSEILKKTIFKDFYELEPHKFQNKTNGITPRRWLVLCNPGLAEIIAERIGEEYISDLDQLRKLLSYVDDEAFIRDVAKVKQENKLKFAAYLEREYKVHINPNSLFDVQVKRIHEYKRQLLNCLHVITLYNRIKKEPNKFVVPRTVMIGGKAAPGYHMAKMIIKLITAIGDVVNHDPVVGDRLRVIFLENYRVSLAEKVIPAADLSEQISTAGTEASGTGNMKFMLNGALTIGTMDGANVEMAEEAGEENFFIFGMRVEDVDRLDQRGYNAQEYYDRIPELRQIIEQLSSGFFSPKQPDLFKDIVNMLMHHDRFKVFADYEEYVKCQERVSALYKNPREWTRMVIRNIATSGKFSSDRTIAQYAREIWGVEPSRQRLPAPDEKIP			2
